Values quoted from earlier work in patent publication US12305200B2, “Methods and compositions for vault nanoparticle immobilization of therapeutic molecules and for vault targeting” (AUKERA, INC., priority 2017, dated 2025).

Target: GRP-R (Homo sapiens, UniProt P30550)
Settings: Accardo et al., EJNMMI Research 2016

Chain of GRP-R (P30550 whole entry): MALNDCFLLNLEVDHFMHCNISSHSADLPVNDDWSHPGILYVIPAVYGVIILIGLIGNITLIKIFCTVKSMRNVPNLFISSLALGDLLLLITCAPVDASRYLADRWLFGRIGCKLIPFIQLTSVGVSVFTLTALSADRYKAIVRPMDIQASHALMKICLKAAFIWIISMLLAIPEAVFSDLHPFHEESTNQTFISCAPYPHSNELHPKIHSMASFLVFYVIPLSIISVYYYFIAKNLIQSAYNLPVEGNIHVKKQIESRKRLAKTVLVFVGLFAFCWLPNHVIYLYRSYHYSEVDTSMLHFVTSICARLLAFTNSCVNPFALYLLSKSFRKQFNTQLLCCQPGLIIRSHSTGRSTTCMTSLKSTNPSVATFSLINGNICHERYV

Substance: Gin-Trp-Ala-Val-Gly-His-Leu-Met (SEQ ID NO.: 3)-NH2 [8-amino acid peptide of the ligand GRP]
- affinity for the GRP-R: has been found to have affinity
